Measurements: patent US20250388696A1 (NAVIGO PROTEINS, published 2025)
Where no end group is shown, it is not given here.

B1: Fusion proteins with albumin binding domain of SEQ ID NO: 5 (designed binder, not shown: small tags and cut ends)
chain: LAEAKVLALKELDKYGISNYYKNLINNAKTIEGVKALKDAIVAA
modifications: also: part of fusion protein, targeting moiety, linker, tag and order not given here
B2: Fusion proteins with albumin binding domain of SEQ ID NO: 22 (designed binder, not shown: small tags and cut ends)
chain: LAEAKVLALKELDKYGISNYYKNLINNAKTIEGVKALKAQILAA
modifications: also: part of fusion protein, targeting moiety, linker, tag and order not given here
B3: Fusion proteins with albumin binding domain of SEQ ID NO: 24 (designed binder, not shown: small tags and cut ends)
chain: LAEAKVLALKELDKYGISNYYKNLINNAKTIEGVEALKDAIVAA
modifications: also: part of fusion protein, targeting moiety, linker, tag and order not given here
B4: Fusion proteins with albumin binding domain of SEQ ID NO: 13 (designed binder, not shown: small tags and cut ends)
chain: LAEAKVLAIKELDKAGISDYYFNLINNAKTIEGVKALKAQIVAA
modifications: also: part of fusion protein, targeting moiety, linker, tag and order not given here
B5: Fusion proteins with albumin binding domain of SEQ ID NO: 25 (designed binder, not shown: small tags and cut ends)
chain: LAEAKVLALKELDKYGISNYYKNLINNAKTIEGVEALKEAIVAA
modifications: also: part of fusion protein, targeting moiety, linker, tag and order not given here
B6: Fusion proteins with albumin binding domain of SEQ ID NO: 23 (designed binder, not shown: small tags and cut ends)
chain: LAEAKVLALKELDKYGISNYYKNLINNAKTIEGVKALKEAIVAA
modifications: also: part of fusion protein, targeting moiety, linker, tag and order not given here
notes: also called c19
B7: Fusion proteins with albumin binding domain of SEQ ID NO: 6 (designed binder, not shown: small tags and cut ends)
chain: LAEAKVLALKELDKYGISNYYKNLINNAKTIEGVKALKDEIVAA
modifications: also: part of fusion protein, targeting moiety, linker, tag and order not given here
notes: also called c20
B8: Fusion proteins with albumin binding domain of SEQ ID NO: 21 (designed binder, not shown: small tags and cut ends)
chain: LAEAKVLALKELDKYGISNYYKNLINNAKTIEGVKALKAAIVAA
modifications: also: part of fusion protein, targeting moiety, linker, tag and order not given here
B9: Fusion proteins with albumin binding domain of SEQ ID NO: 26 (designed binder, not shown: small tags and cut ends)
chain: LAEAKVLALKELDKYGISNYYKNLINNAKTIEGVEALKEAILAA
modifications: also: part of fusion protein, targeting moiety, linker, tag and order not given here
B10: Fusion proteins with albumin binding domain of SEQ ID NO: 7 (designed binder, not shown: small tags and cut ends)
chain: LAEAKVLALKELDKYGISNYYKNLINNAKTIEGVEALKDAILAA
modifications: also: part of fusion protein, targeting moiety, linker, tag and order not given here
notes: also called c24

Biological target: T1, mouse serum albumin (mouse, UniProt P07724 25-608)
T1 construct: also called MSA
Assay: SPR, MSA immobilised
Experimental: Recombinant protein A, HSA, MSA or target (either ED-B or Her2) was immobilized on a High Capacity Amine sensor chip (Bruker) after NHS/EDC activation with a Sierra SPR-32 system (Bruker). The chip was equilibrated with SPR running buffer (PBS 0.05%, Tween pH 7.3). Injection of ethanolamine after target immobilization was used to block free NHS groups. To determine the binding of fusion proteins to FAP, the Fc-tagged target was injected with 60 or 30 nM to Protein A coupled spots followed by the injection of fusion proteins.
Binding proteins were applied to the chip in serial dilutions with a flow rate of 30 μl/min. Upon binding, analyte accumulated on the surface increasing the refractive index. This change in the refractive index was measured in real time and plotted as response or resonance units versus time. The association was performed for 120 seconds and the dissociation for 180 seconds. After each run, the chip surface was regenerated with 30 μl regeneration buffer (10 mM glycine pH 2.0 or pH 1.5) and equilibrated with running buffer. Binding studies were carried out using the Sierra SPR-32 system (Bruker); data evaluation was operated via the Sierra Analyser software, provided by the manufacturer, by the use of the Langmuir 1:1 model (RI=0).

| Binder | Kd |
| --- | --- |
| B1 | < 10 nM |
| B2 | < 16 nM |
| B3 | < 16 nM |
| B4 | < 16 nM |
| B5 | < 16 nM |
| B6 | < 10 nM |
| B7 | < 10 nM |
| B8 | < 16 nM |
| B9 | < 10 nM |
| B10 | < 10 nM |
